From patent US20050032118A1, “Nitrophenyl derivatives that can be activated by light” (priority 1996, published 2005) come the findings set out here.

The nature of the data set: Photolysis of nitrobenzyl-BSA conjugates with ultraviolet light (365 nm), residues counted by spectrophotometry. To be noted: for residues removed on irradiation with light: BSA as model protein, 8-15 residues bound, approximately 10 mins; for NBE residues cleaved from the protein / NBE residues cleaved: UV 10 min.

As for `O=[N+]([O-])c1ccccc1CO` [NBA, 2-nitrobenzyl alcohol], the “residues removed on irradiation with light” value is listed as about 65%.
Take `CC(O)Cc1ccccc1[N+](=O)[O-]` (centres unmarked) [NBE, 1-(2-nitrobenzyl)ethanol]: the “residues removed on irradiation with light” value was “about 95%”.
In the case of “NBE-BSA conjugates: bovine serum albumin randomly coated with NBE residues through nitrobenzyloxycarbonyl chloride”, the “NBE residues cleaved from the protein” value was 3 residues (3 NBE residues bound per protein molecule (50 mg sample)) and 14 residues (14.8 NBE residues bound per protein molecule (25 mg sample)). Moreover, the NBE residues cleaved (3.5 NBE residues per BSA molecule) is on record as 2.5 residues, the NBE residues cleaved (6.9 NBE residues per BSA molecule) is on record as 6.0 residues, the NBE residues cleaved (10.8 NBE residues per BSA molecule) worked out at 10 residues and the NBE residues cleaved (14.5 NBE residues per BSA molecule) is given as 14 residues.
